From patent EP1244779B1

What was measured:
Assay in all cases: cell-based or functional assay
[1] = target: Savinase (subtilisin 309 from B. lentus) (B. lentus) (UniProt P29600)
[2] = target: subtilisin 309 variant A98AI+A98G+S99H+G100S+S101A (B. lentus) (UniProt P29600)
[3] = target: subtilisin 309 variant A98AT + Y167A + R170S + A194P (B. lentus) (UniProt P29600)
[4] = target: subtilisin 309 variant S99SD (B. lentus) (UniProt P29600)
[5] = target: subtilisin 309 variant S99SD + M222S (B. lentus) (UniProt P29600)
[6] = target: subtilisin 309 variant S99SD + N76D + A194P + A230V (B. lentus) (UniProt P29600)
[7] = target: subtilisin 309 variant S99SD + S99A (B. lentus) (UniProt P29600)
[8] = target: subtilisin 309 variant S99SD + S99A + A133E (B. lentus) (UniProt P29600)
[9] = target: subtilisin 309 variant S99SD + S99A + L217F + A228V + A230V (B. lentus) (UniProt P29600)
[10] = target: subtilisin 309 variant S99SD + S99A + L217LP (B. lentus) (UniProt P29600)
[11] = target: subtilisin 309 variant S99SD + S99A + L42LN (B. lentus) (UniProt P29600)
[12] = target: subtilisin 309 variant S99SD + S99A + P129PD (B. lentus) (UniProt P29600)
[13] = target: subtilisin 309 variant S99SD + S99A + P129PR (B. lentus) (UniProt P29600)
[14] = target: subtilisin 309 variant S99SD + S99A + P131T (B. lentus) (UniProt P29600)
[15] = target: subtilisin 309 variant S99SD + S99A + S216SDP (B. lentus) (UniProt P29600)
[16] = target: subtilisin 309 variant S99SD + S99A + S216SP (B. lentus) (UniProt P29600)
[17] = target: subtilisin 309 variant S99SD + S99A + T143K (B. lentus) (UniProt P29600)
[18] = target: subtilisin 309 variant S99SE (B. lentus) (UniProt P29600)
[19] = target: subtilisin 309 variant S99SN (B. lentus) (UniProt P29600)
[20] = target: subtilisin 309 variant S99SQ + S99T (B. lentus) (UniProt P29600)
[21] = target: subtilisin 309 variant S99SR + S99T (B. lentus) (UniProt P29600)

Residual Activity (%) [1]: < 5% | Residual Activity (%) [2]: 22% | Residual Activity (%) [3]: 88% | Residual Activity (%) [4]: 25% | Residual Activity (%) [5]: 25% | Residual Activity (%) [6]: 18.4% | Residual Activity (%) [7]: 27.3% | Residual Activity (%) [8]: 39% | Residual Activity (%) [9]: 12% | Residual Activity (%) [10]: 97% | Residual Activity (%) [11]: 69.2% | Residual Activity (%) [12]: 50% | Residual Activity (%) [13]: 21% | Residual Activity (%) [14]: 35.6% | Residual Activity (%) [15]: 35% | Residual Activity (%) [16]: 29.2% | Residual Activity (%) [17]: 23% | Residual Activity (%) [18]: 27% | Residual Activity (%) [19]: 19% | Residual Activity (%) [20]: 25% | Residual Activity (%) [21]: 67.7%
Substance: trypsin inhibitor type IV-0 (Ovo-inhibitor) (from UniProt P10184 69-517)
